Key:
[1] = target: human plasma Kallikrein (human) (UniProt P03952)
[2] = target: human factor XIa (human) (UniProt P03951)
[3] = target: human factor XIIa (human) (UniProt P00748)
[4] = target: human thrombin (FIIa) (human) (UniProt P00734)
[5] = target: human thrombin (FIIa) (human) (UniProt P00734); remark: listed apart in the source
[6] = target: human thrombin (FIIa) (human) (UniProt P00734); remark: listed apart in the source
[7] = target: human thrombin (FIIa) (human) (UniProt P00734); remark: listed apart in the source

Sequence of UniProt P03951 (P03951 19-387, chain 1 of 2): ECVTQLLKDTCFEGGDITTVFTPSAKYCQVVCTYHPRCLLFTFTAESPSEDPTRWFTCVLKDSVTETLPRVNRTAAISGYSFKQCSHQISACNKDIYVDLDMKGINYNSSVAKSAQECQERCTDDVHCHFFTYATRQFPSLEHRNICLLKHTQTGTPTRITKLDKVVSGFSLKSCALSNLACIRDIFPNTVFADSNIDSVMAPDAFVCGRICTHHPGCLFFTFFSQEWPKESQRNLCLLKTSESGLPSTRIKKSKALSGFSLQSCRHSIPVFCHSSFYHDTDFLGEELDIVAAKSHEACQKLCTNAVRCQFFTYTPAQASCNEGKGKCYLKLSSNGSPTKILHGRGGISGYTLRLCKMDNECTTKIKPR
Sequence of UniProt P03951 (P03951 388-625, chain 2 of 2): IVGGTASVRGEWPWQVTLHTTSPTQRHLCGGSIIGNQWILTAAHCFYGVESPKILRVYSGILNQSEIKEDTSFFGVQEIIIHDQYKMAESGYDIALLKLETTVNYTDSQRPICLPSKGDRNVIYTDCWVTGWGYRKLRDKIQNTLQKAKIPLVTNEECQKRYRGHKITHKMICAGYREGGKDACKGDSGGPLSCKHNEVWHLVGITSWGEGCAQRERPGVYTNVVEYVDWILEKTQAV
Sequence of UniProt P03952 (P03952 20-390, chain 1 of 2): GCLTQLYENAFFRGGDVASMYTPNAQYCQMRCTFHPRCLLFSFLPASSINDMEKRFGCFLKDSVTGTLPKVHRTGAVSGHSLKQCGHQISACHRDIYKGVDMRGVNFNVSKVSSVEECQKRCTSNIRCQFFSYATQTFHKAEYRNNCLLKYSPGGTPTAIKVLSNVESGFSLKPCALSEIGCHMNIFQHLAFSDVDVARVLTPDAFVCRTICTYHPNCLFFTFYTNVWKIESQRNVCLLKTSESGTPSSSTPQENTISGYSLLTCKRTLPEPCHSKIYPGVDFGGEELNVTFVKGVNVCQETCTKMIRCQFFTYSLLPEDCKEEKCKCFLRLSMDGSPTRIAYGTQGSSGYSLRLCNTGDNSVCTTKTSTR
Sequence of UniProt P03952 (P03952 391-638, chain 2 of 2): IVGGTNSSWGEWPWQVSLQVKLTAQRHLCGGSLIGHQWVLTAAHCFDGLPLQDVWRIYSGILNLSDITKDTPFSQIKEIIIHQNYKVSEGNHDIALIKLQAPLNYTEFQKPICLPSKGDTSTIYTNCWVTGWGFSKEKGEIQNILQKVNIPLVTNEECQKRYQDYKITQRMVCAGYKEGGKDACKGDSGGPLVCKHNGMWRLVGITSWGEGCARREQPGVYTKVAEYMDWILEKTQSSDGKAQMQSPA
Sequence of UniProt P00748 (P00748 20-372, chain 1 of 2): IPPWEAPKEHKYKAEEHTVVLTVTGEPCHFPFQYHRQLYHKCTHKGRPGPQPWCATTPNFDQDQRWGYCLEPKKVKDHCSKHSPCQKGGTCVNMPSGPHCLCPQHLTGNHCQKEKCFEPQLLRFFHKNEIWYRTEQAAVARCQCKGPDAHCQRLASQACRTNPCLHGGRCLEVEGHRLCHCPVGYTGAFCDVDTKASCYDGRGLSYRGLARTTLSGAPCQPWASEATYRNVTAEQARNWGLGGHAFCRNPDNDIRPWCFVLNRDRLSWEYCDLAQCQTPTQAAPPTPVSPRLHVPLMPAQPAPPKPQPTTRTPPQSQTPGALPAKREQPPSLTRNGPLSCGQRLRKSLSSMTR
Sequence of UniProt P00748 (P00748 373-615, chain 2 of 2): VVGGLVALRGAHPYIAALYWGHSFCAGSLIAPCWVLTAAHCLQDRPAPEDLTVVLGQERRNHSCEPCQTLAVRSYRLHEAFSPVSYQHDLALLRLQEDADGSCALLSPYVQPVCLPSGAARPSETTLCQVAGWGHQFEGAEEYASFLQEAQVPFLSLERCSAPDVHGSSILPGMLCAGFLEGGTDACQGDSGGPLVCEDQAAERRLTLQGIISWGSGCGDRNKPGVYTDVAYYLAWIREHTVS

Substance: recombinant Dromaserpin (rDromaserpin) (natural protein)
- decrease of Kallikrein (10 nM) catalytic activity on S-2302 with 1 µM and 5 µM rDromaserpin (~30% and ~76%) [1]: 76%
- inhibition of FXIa (3.7 nM) activity (BIOPHEN kit) with 1 µM and 5 µM rDromaserpin (no effect at 1 µM, ~48% at 5 µM) [2]: 48%
- inhibition of FXIIa (15 nM) activity on S-2302 with 1 µM and 5 µM rDromaserpin (no effect at 1 µM, ~29% at 5 µM) [3]: 29%
- decrease of thrombin (2U) catalytic activity on S-2238 with 1 µM and 5 µM rDromaserpin (87% and 89%), 15 min pre-incubation at 37 °C [4]: 89%
- residual activity of thrombin (2U) on the chromogenic substrate S-2238 with rDromaserpin from 0.02 to 1 µM; IC50 [5]: 0.16 µM
- reduction of thrombin-induced aggregation of washed human platelets; 10 µM rDromaserpin pre-incubated 10 min at 37 °C with thrombin [6]: 88.2%
- residual activity of thrombin (2U) with 0.2 µM rDromaserpin and heparin from 0 to 7.2 µM (48.11% without heparin, 12.5% at 2.4 µM heparin, less acceleration from 5.6 µM) [7]: 48.1%

From publication PMC8703697
